What was measured:
Test in all cases: cell-based or functional assay
[1] = target: TrkB (UniProt Q16620 455-822, limits assumed)
[2] = target: T1, PI3Kδ (UniProt O00329 1-1044, limits assumed)
T1 sequence (looked up): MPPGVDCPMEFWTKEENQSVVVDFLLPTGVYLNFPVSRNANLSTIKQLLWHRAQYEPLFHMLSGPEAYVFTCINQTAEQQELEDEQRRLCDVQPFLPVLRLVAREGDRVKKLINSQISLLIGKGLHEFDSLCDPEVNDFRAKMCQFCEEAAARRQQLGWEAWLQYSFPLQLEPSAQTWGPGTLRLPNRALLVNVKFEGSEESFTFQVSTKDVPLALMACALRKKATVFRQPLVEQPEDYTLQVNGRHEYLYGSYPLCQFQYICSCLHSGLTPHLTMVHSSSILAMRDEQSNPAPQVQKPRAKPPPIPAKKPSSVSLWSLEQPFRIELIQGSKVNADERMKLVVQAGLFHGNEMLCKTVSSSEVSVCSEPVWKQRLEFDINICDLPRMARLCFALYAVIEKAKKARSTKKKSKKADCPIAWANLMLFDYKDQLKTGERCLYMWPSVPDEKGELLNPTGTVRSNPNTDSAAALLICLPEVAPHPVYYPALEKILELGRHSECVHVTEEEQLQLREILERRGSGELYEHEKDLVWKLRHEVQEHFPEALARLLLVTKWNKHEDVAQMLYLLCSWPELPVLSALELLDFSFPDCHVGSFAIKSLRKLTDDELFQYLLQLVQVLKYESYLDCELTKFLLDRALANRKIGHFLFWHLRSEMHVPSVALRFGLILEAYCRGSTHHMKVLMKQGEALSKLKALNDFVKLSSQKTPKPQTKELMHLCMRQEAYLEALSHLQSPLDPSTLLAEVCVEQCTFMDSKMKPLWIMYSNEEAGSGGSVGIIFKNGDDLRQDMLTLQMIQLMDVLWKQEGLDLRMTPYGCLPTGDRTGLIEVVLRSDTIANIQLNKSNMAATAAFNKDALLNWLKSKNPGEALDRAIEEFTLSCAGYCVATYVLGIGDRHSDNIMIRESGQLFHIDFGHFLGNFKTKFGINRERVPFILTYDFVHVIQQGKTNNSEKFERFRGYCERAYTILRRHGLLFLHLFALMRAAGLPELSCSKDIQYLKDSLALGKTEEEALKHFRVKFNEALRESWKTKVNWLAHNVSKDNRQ

[3] = target: T2, SGK (SGK1) (UniProt O00141 60-431, limits assumed)
T2 sequence (looked up): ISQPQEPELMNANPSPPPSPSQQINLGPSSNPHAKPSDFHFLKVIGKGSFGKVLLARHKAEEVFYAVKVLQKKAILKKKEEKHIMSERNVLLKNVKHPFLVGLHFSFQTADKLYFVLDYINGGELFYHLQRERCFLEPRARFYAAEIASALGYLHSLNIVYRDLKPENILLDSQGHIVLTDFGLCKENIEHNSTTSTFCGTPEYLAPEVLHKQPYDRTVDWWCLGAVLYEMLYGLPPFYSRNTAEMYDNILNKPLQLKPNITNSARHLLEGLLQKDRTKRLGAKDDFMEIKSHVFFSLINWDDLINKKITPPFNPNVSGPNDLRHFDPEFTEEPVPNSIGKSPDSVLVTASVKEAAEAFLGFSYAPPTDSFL

[4] = target: AKT2 (PKB beta) (UniProt P31751 1-481, limits assumed)
Chain of AKT2 (PKB beta) (P31751 whole entry): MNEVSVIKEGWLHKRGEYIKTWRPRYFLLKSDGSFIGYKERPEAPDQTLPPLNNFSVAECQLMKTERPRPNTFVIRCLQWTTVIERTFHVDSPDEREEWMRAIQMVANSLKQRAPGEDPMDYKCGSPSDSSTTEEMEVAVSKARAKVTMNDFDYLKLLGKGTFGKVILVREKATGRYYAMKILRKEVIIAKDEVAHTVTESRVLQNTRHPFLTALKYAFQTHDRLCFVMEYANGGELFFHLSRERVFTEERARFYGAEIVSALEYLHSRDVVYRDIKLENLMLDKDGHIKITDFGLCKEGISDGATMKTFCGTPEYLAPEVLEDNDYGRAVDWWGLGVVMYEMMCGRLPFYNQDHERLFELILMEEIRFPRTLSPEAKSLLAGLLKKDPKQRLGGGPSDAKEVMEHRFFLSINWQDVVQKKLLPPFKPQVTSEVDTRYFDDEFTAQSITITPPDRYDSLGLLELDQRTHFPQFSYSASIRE

[5] = target: RPS6KB1 (p70S6K) (UniProt P23443 1-421, limits assumed)
Chain of RPS6KB1 (p70S6K) (P23443 1-421 limits assumed): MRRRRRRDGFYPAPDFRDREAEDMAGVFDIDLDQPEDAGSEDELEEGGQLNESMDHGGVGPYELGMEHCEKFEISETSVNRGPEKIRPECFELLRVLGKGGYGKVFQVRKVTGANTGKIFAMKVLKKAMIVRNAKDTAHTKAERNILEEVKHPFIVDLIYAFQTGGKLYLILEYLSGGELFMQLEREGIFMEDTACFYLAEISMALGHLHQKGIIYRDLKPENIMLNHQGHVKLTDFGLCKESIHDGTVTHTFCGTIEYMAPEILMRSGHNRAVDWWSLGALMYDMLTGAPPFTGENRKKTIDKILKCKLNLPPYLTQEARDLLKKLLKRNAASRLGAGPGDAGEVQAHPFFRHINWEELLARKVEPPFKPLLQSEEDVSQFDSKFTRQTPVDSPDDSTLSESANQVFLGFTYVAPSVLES

[6] = target: JAK3 (UniProt P52333 781-1124, limits assumed)
Chain of JAK3 (P52333 781-1124 limits assumed): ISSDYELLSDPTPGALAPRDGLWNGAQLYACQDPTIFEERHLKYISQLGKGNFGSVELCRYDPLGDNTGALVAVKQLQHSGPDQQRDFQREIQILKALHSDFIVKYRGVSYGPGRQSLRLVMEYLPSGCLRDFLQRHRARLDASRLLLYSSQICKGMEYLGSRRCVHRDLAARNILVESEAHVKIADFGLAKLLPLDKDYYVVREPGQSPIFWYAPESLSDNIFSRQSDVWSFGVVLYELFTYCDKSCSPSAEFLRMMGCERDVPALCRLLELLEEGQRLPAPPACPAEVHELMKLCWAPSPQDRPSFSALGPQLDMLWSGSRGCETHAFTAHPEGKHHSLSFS

[7] = target: PAK3 (UniProt O75914 1-559, limits assumed)
Chain of PAK3 (O75914 whole entry): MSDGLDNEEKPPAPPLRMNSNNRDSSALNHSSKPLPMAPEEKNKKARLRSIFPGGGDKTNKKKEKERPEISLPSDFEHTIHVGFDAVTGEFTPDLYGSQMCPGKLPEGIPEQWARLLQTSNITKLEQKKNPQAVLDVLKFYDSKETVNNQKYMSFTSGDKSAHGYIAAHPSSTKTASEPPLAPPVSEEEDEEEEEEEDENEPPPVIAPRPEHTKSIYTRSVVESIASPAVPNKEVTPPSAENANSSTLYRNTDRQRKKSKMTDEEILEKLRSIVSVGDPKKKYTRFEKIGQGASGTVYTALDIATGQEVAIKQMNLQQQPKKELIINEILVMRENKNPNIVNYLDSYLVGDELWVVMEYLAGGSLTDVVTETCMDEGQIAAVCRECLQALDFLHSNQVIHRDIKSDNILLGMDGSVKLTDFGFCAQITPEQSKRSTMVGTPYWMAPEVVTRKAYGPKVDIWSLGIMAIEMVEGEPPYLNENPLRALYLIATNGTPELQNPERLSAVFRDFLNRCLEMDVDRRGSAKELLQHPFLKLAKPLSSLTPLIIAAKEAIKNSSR

[8] = target: Abl (UniProt P00519 27-1130, limits assumed)
Chain of Abl (P00519 27-1130 limits assumed): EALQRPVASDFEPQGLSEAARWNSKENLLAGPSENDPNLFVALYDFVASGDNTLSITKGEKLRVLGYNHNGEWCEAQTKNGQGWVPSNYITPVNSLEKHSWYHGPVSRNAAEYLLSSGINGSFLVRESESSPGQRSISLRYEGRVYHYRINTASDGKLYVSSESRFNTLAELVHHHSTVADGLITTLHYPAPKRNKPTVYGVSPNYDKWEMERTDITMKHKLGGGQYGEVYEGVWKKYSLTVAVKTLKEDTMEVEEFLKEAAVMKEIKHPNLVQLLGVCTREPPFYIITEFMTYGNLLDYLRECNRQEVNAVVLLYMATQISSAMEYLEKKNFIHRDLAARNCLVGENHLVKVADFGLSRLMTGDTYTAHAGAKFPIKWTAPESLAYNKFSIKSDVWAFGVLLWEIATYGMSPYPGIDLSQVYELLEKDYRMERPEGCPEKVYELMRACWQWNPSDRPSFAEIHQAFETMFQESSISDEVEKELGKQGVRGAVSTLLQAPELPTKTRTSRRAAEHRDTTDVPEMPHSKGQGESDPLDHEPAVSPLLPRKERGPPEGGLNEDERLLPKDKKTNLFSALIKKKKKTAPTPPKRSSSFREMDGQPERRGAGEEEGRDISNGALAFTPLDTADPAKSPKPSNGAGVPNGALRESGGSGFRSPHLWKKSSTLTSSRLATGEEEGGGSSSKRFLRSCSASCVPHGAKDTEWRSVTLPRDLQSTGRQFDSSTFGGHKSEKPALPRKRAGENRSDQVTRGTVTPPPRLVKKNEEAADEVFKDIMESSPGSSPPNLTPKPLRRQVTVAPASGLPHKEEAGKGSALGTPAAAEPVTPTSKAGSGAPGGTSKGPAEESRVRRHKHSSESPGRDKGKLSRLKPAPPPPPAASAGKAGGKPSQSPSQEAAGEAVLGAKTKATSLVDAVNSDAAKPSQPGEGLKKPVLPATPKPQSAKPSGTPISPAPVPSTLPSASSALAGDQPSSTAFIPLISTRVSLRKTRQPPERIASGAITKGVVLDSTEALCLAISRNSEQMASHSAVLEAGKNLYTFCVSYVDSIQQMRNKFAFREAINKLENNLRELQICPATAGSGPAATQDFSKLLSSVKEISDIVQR

[9] = target: AKT1 (PKB alpha), active (UniProt P31749 1-480, limits assumed)
Chain of AKT1 (PKB alpha), active (P31749 whole entry): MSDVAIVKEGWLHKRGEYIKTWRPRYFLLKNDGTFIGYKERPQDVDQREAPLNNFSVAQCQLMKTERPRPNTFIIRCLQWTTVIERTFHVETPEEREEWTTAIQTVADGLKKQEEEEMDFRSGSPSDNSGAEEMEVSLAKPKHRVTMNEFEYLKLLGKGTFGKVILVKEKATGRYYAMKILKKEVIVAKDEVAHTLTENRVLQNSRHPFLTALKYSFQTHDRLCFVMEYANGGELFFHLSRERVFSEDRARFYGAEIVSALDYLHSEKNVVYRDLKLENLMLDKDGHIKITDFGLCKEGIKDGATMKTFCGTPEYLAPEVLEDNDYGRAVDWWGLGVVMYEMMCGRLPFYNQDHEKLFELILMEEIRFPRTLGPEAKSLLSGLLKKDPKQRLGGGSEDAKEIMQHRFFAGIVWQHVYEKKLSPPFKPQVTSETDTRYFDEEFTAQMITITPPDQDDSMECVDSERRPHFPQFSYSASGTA

Chain of TrkB (Q16620 455-822 limits assumed): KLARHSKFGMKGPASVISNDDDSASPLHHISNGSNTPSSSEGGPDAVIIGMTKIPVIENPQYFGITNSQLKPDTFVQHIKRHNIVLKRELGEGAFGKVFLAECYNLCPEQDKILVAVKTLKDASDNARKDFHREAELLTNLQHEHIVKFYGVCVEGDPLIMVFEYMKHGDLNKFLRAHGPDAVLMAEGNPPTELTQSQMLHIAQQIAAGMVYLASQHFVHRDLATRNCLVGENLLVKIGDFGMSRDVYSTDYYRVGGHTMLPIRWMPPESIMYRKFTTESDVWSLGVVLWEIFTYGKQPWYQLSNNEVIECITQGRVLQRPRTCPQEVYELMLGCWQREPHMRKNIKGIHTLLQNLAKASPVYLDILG

AKRVKGRTWTLCGTPEY [ZaTa peptide (Ala-Lys-Arg-Val-Lys-Gly-Arg-Thr-Trp-Thr-Leu-Cys-Gly-Thr-Pro-Glu-Tyr)]
in vitro kinase assay at ten times the IC50 for AKT1, percent inhibited [1]: 84%
in vitro kinase assay at ten times the IC50 for AKT1, percent inhibited [2]: 72%
in vitro kinase assay at ten times the IC50 for AKT1, percent inhibited [3]: 73%
in vitro kinase assay at ten times the IC50 for AKT1, percent inhibited [4]: 63%
in vitro kinase assay at ten times the IC50 for AKT1, percent inhibited [5]: 64%
in vitro kinase assay at ten times the IC50 for AKT1, percent inhibited [6]: 79%
in vitro kinase assay at ten times the IC50 for AKT1, percent inhibited [7]: 83%
in vitro kinase assay at ten times the IC50 for AKT1, percent inhibited [8]: 42%
IC50, AKT1 in vitro catalytic activity (incorporation of γ-32P into Ser-21 GSK-3β substrate peptide) [9]: ~100 nM
